Measured values: article PMC5885637 (Journal of molecular biology, 2014)

Biological target: wild-type mouse PrP (residues 23-231) displayed on the yeast surface (Mus musculus, UniProt P04925)
Assay: flow cytometry on cells

wild-type mouse PrP (residues 23-231) displayed on the yeast surface, sequence (P04925 23-231): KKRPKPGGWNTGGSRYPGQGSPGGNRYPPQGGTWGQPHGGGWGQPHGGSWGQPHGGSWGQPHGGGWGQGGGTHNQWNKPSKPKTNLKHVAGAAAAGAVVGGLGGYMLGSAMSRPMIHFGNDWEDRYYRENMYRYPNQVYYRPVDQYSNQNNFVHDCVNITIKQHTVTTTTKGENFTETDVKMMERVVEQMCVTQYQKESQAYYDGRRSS

B1: ICSM18-scFv (scFv, V domains shown)
VH: EVQLQQSGPELVKPGSSVKISCKASRNTFTDYNLDWVKQSHGKTLEWIGNVYPNNGVTGYNQKFRGKATLTVDKSSSTAYMELHSLTSEDSAVYYCALYYYDVSYWGQGTLVTVSS
VL: QIVLTQSPAIMSASPGEKVTMTCSASSSVSYMHWYQQKSGTSPKRWIYDTSKLASGVPARFSGSGSGTSYSLTISSMEAEDAATYFCHQWRSNPYTFGGGTKLEIK
Question: B1 was tested. Which Kd did it give?
Answer: 153 nM
